According to the supplement of paper PMC12764529:
± gives the half width of the 95% confidence interval.

Legend:
[1] = folding stability dG unfold (combined trypsin and chymotrypsin); higher = more stable
How it was run: (§1)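 Unfolding free energy was derived, per protease or combined, by relating Bayesian-fitted K50 values from sequencing counts to a sequence-predicted unfolded-state K50 and a shared folded-state K50. The underlying digests exposed cysteine-free mini-proteins under 80 residues, in a PA-tagged cDNA display construct, to trypsin and chymotrypsin at 11 threefold-diluted concentrations and to a no-protease condition. A filter kept only designs with AlphaFold2 dimer inter-PAE above 15.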

[2] = folding stability dG unfold from chymotrypsin proteolysis; higher = more stable
How it was run: as §1

[3] = folding stability dG unfold from trypsin proteolysis; higher = more stable
How it was run: as §1

Row | Sequence | folding stability dG unfold [1] | folding stability dG unfold [2] | folding stability dG unfold [3]
1 | SAGGSAGGSAGGSMSSSSSPLPDEDGLVTRGKSSEPSPPFTWTTTVDSSGVPSTTVTSLESAGGSAGGSAGG [r7_187_JUSTAS] | 0.323 ± 0.07 kcal/mol | 0.602 ± 0.051 kcal/mol | -0.484 ± 0.1 kcal/mol
2 | SAGGSAGGSAGGSMTITYDKENKTLTIKLPNGKKVLTVNLENMTPEQLKELAKKLGLEVSAGGSAGGSAGGS [r4_49_TrROS_Hall] | 3.44 ± 0.11 kcal/mol | 3.62 ± 0.076 kcal/mol | 3.18 ± 0.2 kcal/mol
3 | SAGGSAGGSAGGSMTTVTLPDAVSTNVTTTKLPDNTTKVDITTTFPDGSTRSSTITINPSAGGSAGGSAGGS [r4_452_JUSTAS] | 0.908 ± 0.07 kcal/mol | 1.32 ± 0.05 kcal/mol | -0.305 ± 0.049 kcal/mol
4 | SAGGSAGGSAGGSMTVTLSREELLRLLGVPPGVPIPESVLAKIKSIETLPDGSVTVTIGSAGGSAGGSAGGS [r4_369_JUSTAS] | 2.74 ± 0.11 kcal/mol | 3.118 ± 0.027 kcal/mol | 1.98 ± 0.027 kcal/mol
5 | SAGGSAGGSAGGSMTVTVTLKDGSTRTFAVPADAPLTLEQLEAAGYPAADIAEVTVTAESAGGSAGGSAGGS [r10_565_JUSTAS] | 2.96 ± 0.038 kcal/mol | 3.292 ± 0.021 kcal/mol | 1.88 ± 0.049 kcal/mol
6 | SAGGSAGGSAGGSMVKVEKNGEGVVTTTTKYFFYPSTGKWSSETITTTKKVPKDEPFPLSAGGSAGGSAGGS [r4_215_JUSTAS] | -0.0856 ± 0.23 kcal/mol | -0.0539 ± 0.33 kcal/mol | -0.159 ± 0.14 kcal/mol
7 | SAGGSAGGSAGGSNDNVVPITILFVDPGKDDRLYLREIRLRIYENGDIEAEVKVYELPLSAGGSAGGSAGGS [r10_598_TrMRF] | 3.68 ± 0.1 kcal/mol | 4.12 ± 0.075 kcal/mol | 2.87 ± 0.11 kcal/mol
8 | SAGGSAGGSAGGSPDGWKFKMEMFTVKVPGAKITIPDGKSITLPPGKEVTIMIMTYVPPSAGGSAGGSAGGS [r4_26_TrROS] | 3.47 ± 0.092 kcal/mol | 3.81 ± 0.086 kcal/mol | 2.25 ± 0.068 kcal/mol
9 | SAGGSAGGSAGGSPGNYREVEIEFRDPDDNGKEVKIEIWVQPGMPEEQIKEFVRELLRRSAGGSAGGSAGGS [r4_442_TrROS] | 1.32 ± 0.25 kcal/mol | 1.4 ± 0.19 kcal/mol | 0.942 ± 0.18 kcal/mol
10 | SAGGSAGGSAGGSPKVYVELRFKLPNNLYVEIRYEIDPEKPGYVDWEVRLFDENGNPLGSAGGSAGGSAGGS [r4_297_TrMRF] | 4.56 ± 0.16 kcal/mol | 4.74 ± 0.096 kcal/mol | 3.61 ± 0.23 kcal/mol
11 | SAGGSAGGSAGGSPNWVWILITVKITFPIYKYDPDGKPLEPIEITIEFTVLIRIPPGDFSAGGSAGGSAGGS [r4_425_TrROS] | 5.15 ± 0.27 kcal/mol | 5.34 ± 0.18 kcal/mol | 3.63 ± 0.19 kcal/mol
12 | SAGGSAGGSAGGSPSETLEVTLADGTRLTVTRNADGSLTVTVEPAPPPPVVVFKSPEELSAGGSAGGSAGGS [r4_120_TrROS_Hall] | 1.14 ± 0.096 kcal/mol | 0.623 ± 0.14 kcal/mol | 1.44 ± 0.025 kcal/mol
13 | SAGGSAGGSAGGSPVAAKTLSKSTSLLPNGKVKTSTTTAFPTGETTTTTTTTPLSLTLTSAGGSAGGSAGGS [r10_1206_JUSTAS] | -0.0493 ± 0.12 kcal/mol | 0.158 ± 0.17 kcal/mol | -0.654 ± 0.27 kcal/mol
14 | SAGGSAGGSAGGSPVSPKIVTTDPGPNVITTVYYSPEDGKVLSTSTTVVPPLPPGEILTSAGGSAGGSAGGS [r10_1051_JUSTAS] | 1 ± 0.32 kcal/mol | 0.817 ± 0.21 kcal/mol | 1.45 ± 0.085 kcal/mol
15 | SAGGSAGGSAGGSQDLVKITIKLPGGEEKEITTPAEEIDKAIKELGIKKEDVEILEITEVSAGGSAGGSAGG [r7_211_JUSTAS] | 1.34 ± 0.24 kcal/mol | 1.56 ± 0.051 kcal/mol | 1.13 ± 0.093 kcal/mol
16 | SAGGSAGGSAGGSSEPVVILVPVLPDAEEAVVDIGGHPALVKRFPDSPLAAITVPKELLSAGGSAGGSAGGS [r4_430_TrMRF] | -0.149 ± 0.066 kcal/mol | -0.581 ± 0.048 kcal/mol | 0.0985 ± 0.033 kcal/mol
17 | SAGGSAGGSAGGSSKNRPLVIIDYPFYTSNPDYIVRATFINYLDENNNITEVKVEVLKASAGGSAGGSAGGS [r4_75_TrMRF] | 2.59 ± 0.27 kcal/mol | 3.14 ± 0.095 kcal/mol | 2.3 ± 0.22 kcal/mol
18 | SAGGSAGGSAGGSSLASDPTVPPDEPRTVTVLEPEPGGRLRVVTYEETPAGRRPVSALLSAGGSAGGSAGGS [r10_288_JUSTAS] | 0.336 ± 0.21 kcal/mol | 1.09 ± 0.26 kcal/mol | -0.782 ± 0.95 kcal/mol

Row | Sequence | folding stability dG unfold [1] | folding stability dG unfold [2] | folding stability dG unfold [3]
19 | SAGGSAGGSAGGSSMAIKKVSEFLLRPENGELIKVTVYRKPGPETIVTVIGDKTYTFEPSAGGSAGGSAGGS [r4_114_JUSTAS] | 0.0399 ± 0.1 kcal/mol | 0.336 ± 0.11 kcal/mol | -0.855 ± 0.25 kcal/mol
20 | SAGGSAGGSAGGSSMITVSTTSFPDGTRKVTITEPGTGKPLKTVDMPPSESVSAVKEKLSSAGGSAGGSAGG [r7_633_JUSTAS] | -0.245 ± 0.2 kcal/mol | -0.67 ± 0.2 kcal/mol | -0.012 ± 0.1 kcal/mol
21 | SAGGSAGGSAGGSSMSSGPGRLSITTSTVDTGSFFKPGGEVEGSKTTTVTVTTLLPPSTPSAGGSAGGSAGG [r7_614_JUSTAS] | 0.908 ± 0.054 kcal/mol | 1.27 ± 0.067 kcal/mol | 0.21 ± 0.025 kcal/mol
22 | SAGGSAGGSAGGSSSSTVPLPDDTTLTVHTGSSSYTVTTTSPDGTSTTTTVSPATVAAALSAGGSAGGSAGG [r11_1068_JUSTAS] | 0.188 ± 0.077 kcal/mol | -0.0339 ± 0.1 kcal/mol | 0.255 ± 0.022 kcal/mol
23 | SAGGSAGGSAGGSSTSLIGNSTVTVDPVYVTDTGERGFVISADVPPSVSEAVVEAHVASSAGGSAGGSAGGS [r10_531_JUSTAS] | 0.485 ± 0.05 kcal/mol | 0.0382 ± 0.022 kcal/mol | 0.869 ± 0.028 kcal/mol
24 | SAGGSAGGSAGGSSYQLKLEAEFLVGDSSGKLYKVKLTITVNEDGSISIDLEVLSVFDVSAGGSAGGSAGGS [r4_496_TrMRF] | 5.41 ± 0.16 kcal/mol | 5.46 ± 0.11 kcal/mol | 4.16 ± 0.2 kcal/mol
25 | SAGGSAGGSAGGSTRDFLVKDPSNGQWYKVTATTDPAGAVTITFPETGEVVPLEGLVVSPSAGGSAGGSAGG [r11_301_JUSTAS] | 1.43 ± 0.042 kcal/mol | 1.338 ± 0.012 kcal/mol | 1.47 ± 0.046 kcal/mol
26 | SAGGSAGGSAGGSVAYVAPDGDKLIVRVVRPDGSVEEKEFDSLEDLKTLPDDVPVAFLVSAGGSAGGSAGGS [r4_447_TrMRF] | 0.516 ± 0.11 kcal/mol | -0.0498 ± 0.15 kcal/mol | 0.86 ± 0.034 kcal/mol
27 | SAGGSAGGSAGGSVPSVKLPKVGLKTDPVSSVLDFGEEKGDPVSVSIHLTLFLPDGTILLSAGGSAGGSAGG [r11_890_JUSTAS] | 0.672 ± 0.17 kcal/mol | 0.881 ± 0.12 kcal/mol | 0.161 ± 0.082 kcal/mol
28 | SAGGSAGGSAGGSVTSTSSVGSSPGSTTTLTYPEKPLYVTVYTELKDDPTVVTTETFPLLSAGGSAGGSAGG [r7_509_JUSTAS] | 1.56 ± 0.39 kcal/mol | 1.73 ± 0.066 kcal/mol | 1.22 ± 0.19 kcal/mol
29 | SAGGSAGGSAGGSYEVKEETEPKTGLKITTTTLPDGTIETTTINPATGEVTTTTSSPLESAGGSAGGSAGGS [r10_127_JUSTAS] | 1.73 ± 0.15 kcal/mol | 1.89 ± 0.052 kcal/mol | 1.34 ± 0.072 kcal/mol
30 | SAGGSAGGSAGGSYIIVQFPADEIKEALPPGFEIKSIERSPKNGWVMVAIRYPKDGKPISAGGSAGGSAGGS [r4_435_TrROS] | 0.818 ± 0.2 kcal/mol | 0.416 ± 0.17 kcal/mol | 1.04 ± 0.038 kcal/mol
31 | SAGGSAGGSAGGTITIPIYLDDKWITITRIELSPPDGKIKIEFTFNNRPREFDIPIPPGASAGGSAGGSAGG [r7_477_TrROS] | 2.36 ± 0.11 kcal/mol | 2.71 ± 0.074 kcal/mol | 1.9 ± 0.049 kcal/mol
32 | SAGGSAGGSAGGTITLPNGAKVTRIEFLPDGTLRVEAVVETDGGPVTVEITLPVYPSLATSAGGSAGGSAGG [r7_37_TrMRF] | 2.17 ± 0.037 kcal/mol | 2.13 ± 0.036 kcal/mol | 2.19 ± 0.058 kcal/mol
33 | SAGGSAGGSAGGTKTIPFPIEEIEVEHNPDNNYYHVTIRFPDNGKPITFMFPPGDTITISAGGSAGGSAGGS [r10_819_TrROS] | 0.868 ± 0.12 kcal/mol | 0.836 ± 0.15 kcal/mol | 0.812 ± 0.025 kcal/mol
34 | SAGGSAGGSAGGTLEAIKELAKDMPPGDKNIPIKIPDGKPYTIDVEMDPDGKMEIDIEPSAGGSAGGSAGGS [r10_1017_TrROS] | 0.466 ± 0.2 kcal/mol | -0.634 ± 0.86 kcal/mol | 1.19 ± 0.041 kcal/mol
35 | SAGGSAGGSAGGTLEFTFPGEGNLLAKVRIDLGESGNVRIDVYIYDGDTLLAKATFTLNLSAGGSAGGSAGG [r7_79_TrMRF] | 5.48 ± 0.13 kcal/mol | 5.46 ± 0.11 kcal/mol | 4.55 ± 0.12 kcal/mol
36 | SAGGSAGGSAGGVEIPPDKPVAIEVTSPEGPTATLIFDPKDGTVTVIEGGKPVEVPAEDFSAGGSAGGSAGG [r7_937_TrMRF] | -0.377 ± 0.29 kcal/mol | -1.06 ± 0.53 kcal/mol | 0.0909 ± 0.059 kcal/mol
